Patent US9200040B2, “Specific binding agents of human angiopoietin-2” (Amgen Inc., priority 2001, dated 2015)
Entries after “also recorded” stand apart in the source; their conditions may differ. Read-outs that look alike come from different tables or passages of the source. Primed or numbered codes have the meaning given here. Where no end group is shown, it is not given here. [ ]: non-standard residue; d: D form. Fc(5) = non-antigen-binding fragment of an antibody (vehicle) fused to the peptide

Experiments:
[1] = target: T1, hAng-1 (Homo sapiens, UniProt Q15389); experiment: Neutralization ELISA (Example 2); type: binding; conditions: Table 5; about 1 nM Tie-2-Fc
T1 sequence (Q15389 16-498): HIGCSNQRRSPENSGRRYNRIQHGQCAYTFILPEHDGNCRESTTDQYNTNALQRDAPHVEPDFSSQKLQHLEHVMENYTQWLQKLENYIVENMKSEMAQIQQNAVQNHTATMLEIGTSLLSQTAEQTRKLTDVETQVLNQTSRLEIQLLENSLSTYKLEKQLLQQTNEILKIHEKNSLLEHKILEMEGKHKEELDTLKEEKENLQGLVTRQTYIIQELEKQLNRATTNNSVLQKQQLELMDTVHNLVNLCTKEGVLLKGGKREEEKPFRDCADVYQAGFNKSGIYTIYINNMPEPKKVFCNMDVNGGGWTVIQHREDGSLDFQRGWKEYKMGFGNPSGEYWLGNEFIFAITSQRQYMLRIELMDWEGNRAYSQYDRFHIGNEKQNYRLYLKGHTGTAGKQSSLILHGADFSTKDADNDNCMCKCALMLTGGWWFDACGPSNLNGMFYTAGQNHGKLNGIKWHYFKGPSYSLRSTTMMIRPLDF

[2] = target: T1, hAng-1; experiment: Affinity ELISA; type: binding; conditions: Table 5
[3] = target: T2, hAng-2 (Homo sapiens, UniProt O15123); experiment: Affinity BIAcore (Example 2); type: binding; conditions: Table 6
T2 construct: conditioned media of human 293T cells transfected with full length human Ang-2 DNA; made in house; host or cells: conditioned media
T2 sequence (O15123 19-496): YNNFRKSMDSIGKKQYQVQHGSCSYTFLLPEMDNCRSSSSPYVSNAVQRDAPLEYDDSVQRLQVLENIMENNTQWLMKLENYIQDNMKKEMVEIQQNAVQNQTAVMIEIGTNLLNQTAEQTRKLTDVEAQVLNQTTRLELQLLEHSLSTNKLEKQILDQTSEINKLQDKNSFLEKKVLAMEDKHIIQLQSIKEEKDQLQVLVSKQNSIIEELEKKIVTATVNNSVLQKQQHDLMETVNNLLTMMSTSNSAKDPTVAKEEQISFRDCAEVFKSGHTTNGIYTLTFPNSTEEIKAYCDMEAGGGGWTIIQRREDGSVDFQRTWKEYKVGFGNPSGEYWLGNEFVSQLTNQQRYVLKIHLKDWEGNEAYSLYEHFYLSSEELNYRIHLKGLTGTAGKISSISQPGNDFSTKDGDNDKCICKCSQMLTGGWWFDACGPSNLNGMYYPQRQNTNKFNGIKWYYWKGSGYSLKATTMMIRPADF
Description: (§1) Binding assays were carried out by first capturing about 100 Ru of each candidate anti-Ang-2 peptibody to the immobilized Protein G, after which various concentrations (0-100 nM) of huAng-2 or mAng-2 were injected over the bound antibody surface at a flow rate of 50 μl/min for 3 minutes. Peptibody binding kinetic parameters including ka (association rate constant), kd (dissociation rate constant) and KD (dissociation equilibrium constant) were determined using the BIA evaluation 3.1 computer program (Biacore, Inc.). Lower dissociation equilibrium constants indicated greater affinity of the peptibody for Ang-2.

[4] = target: T3, mAng-2 (Mus musculus, UniProt O35608); experiment: Affinity BIAcore (Example 2); type: binding, murine; conditions: Table 6
T3 construct: made in house
T3 sequence (O35608 19-496): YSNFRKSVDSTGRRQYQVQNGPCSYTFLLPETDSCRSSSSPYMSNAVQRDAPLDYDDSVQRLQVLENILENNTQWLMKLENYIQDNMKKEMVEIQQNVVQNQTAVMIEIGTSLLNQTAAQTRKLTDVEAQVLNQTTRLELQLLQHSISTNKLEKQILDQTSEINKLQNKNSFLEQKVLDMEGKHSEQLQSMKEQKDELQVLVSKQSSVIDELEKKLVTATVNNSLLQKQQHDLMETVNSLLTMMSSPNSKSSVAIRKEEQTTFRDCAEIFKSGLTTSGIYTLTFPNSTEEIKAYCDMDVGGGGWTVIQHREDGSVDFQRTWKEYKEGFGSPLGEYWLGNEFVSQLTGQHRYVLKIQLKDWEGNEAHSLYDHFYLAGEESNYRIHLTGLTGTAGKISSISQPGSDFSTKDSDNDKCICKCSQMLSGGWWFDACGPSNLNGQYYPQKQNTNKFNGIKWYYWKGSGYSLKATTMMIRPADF
Description: as §1

[5] = target: T4, huAng2 (Homo sapiens, UniProt O15123); experiment: BIAcore binding to huAng2 (Example 9); conditions: Table 8
T4 construct: purchased R&D Systems BNO12103A
T4 sequence (O15123 68-496 limits assumed): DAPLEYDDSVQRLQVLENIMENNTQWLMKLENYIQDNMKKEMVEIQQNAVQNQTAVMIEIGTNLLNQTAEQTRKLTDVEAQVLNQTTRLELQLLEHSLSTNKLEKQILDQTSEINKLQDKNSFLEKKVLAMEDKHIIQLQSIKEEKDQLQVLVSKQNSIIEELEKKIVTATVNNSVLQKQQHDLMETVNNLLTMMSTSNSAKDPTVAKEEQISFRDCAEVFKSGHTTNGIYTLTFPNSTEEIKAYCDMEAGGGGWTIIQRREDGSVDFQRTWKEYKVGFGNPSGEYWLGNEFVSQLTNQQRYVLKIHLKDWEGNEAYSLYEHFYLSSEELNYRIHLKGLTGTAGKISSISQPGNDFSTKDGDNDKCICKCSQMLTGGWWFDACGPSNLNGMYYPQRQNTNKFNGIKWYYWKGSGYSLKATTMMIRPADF
Description: Six samples of anti-Ang2 peptibodies were tested for their binding activity to huAng2 (R&D Systems, BNO12103A) on BIAcore. Protein G was immobilized to a CM5 chip according to the standard amine-coupling protocol (BIAcore Inc.), and the peptibodies were then injected over a protein G surface for capturing (RL˜100 Ru). To test binding between hAng2 and the captured peptibody, 0.3 nM to 40 nM of huAng2 was injected over the captured peptibody surfaces, and binding sensorgrams were analyzed using BIAevaluation 3.0 (BIAcore Inc.).

[6] = test system: VEGF-induced angiogenesis; experiment: Corneal angiogenesis model; type: in vivo
Description: Ang-2 peptibody CON4(C) was evaluated in the corneal model of angiogenesis in rats. Angiogenesis was induced by implanting a VEGF- (or BSA control) soaked nylon disc into the corneal stroma (n=8/group). Peptibody TN8CON4-C was administered by sub-cutaneous injection at 1.0 or 0.1 mg/rat/day for seven days. Two other groups of animals were treated with the same dose of negative control peptibody 4883. All groups were pre-treated with a single loading dose of either 3.0 or 0.3 mg that was three times the maintenance dose of 1.0 or 0.1 mg (see figure). After seven days of treatment, two vascular endpoints were determined from each digital image of the rat cornea: the number of vessels intersecting the mid-point between the disc and the limbus, and the blood vessel area.

[7] = test system: A431 tumor; conditions: p<0.0001
Description: The doses of peptibody used were 1000, 200, 40 and 8 ug/mouse/day. A total of 20 doses was given to all animals. Tumor volumes and body weights were recorded three times/week. At the end of the study, animals were sacrificed, and their sera were collected for measuring peptibody levels by ELISA. Tumors and a panel of normal tissues were collected from all groups.
Female nude mice were injected subcutaneously with 1×10^7 A431 cells on study day 0.

[8] = test system: Colo-205 tumor
Description: Female nude mice were injected subcutaneously with 2×10^6 Colo-205 cells plus Matrigel (2:1) on study day 0. At day 3, the Ang-2 peptibodies L1-7-N, L1-21-N, Con4-C, and 2×Con4-C were administered subcutaneously at the dose of […], twice a week.
Female nude mice were injected subcutaneously with 2×10^6 Colo-205 cells plus Matrigel (2:1) on study day 0.
Female nude mice were injected subcutaneously with 2×10^6 Colo-205 cells plus Matrigel (2:1) on study day 0. At day 3, Ang-2 peptibody 2×Con4-C or control peptibody were administered subcutaneously at the dose of 350 μg/day. Tumors from groups treated with control peptibody (as described in Table 5) were harvested either at Day 14 (size-matched control) or Day 18 (time-matched control). Tumors from 2×Con4(C) treated group were then harvested at Day 18. Tumor volumes were recorded at regular intervals, as shown.
Female nude mice were injected subcutaneously with 2×10^6 Colo-205 cells plus Matrigel (2:1) on study day 0. Treatment with 350 μg/mouse, s.c. twice a week, of the Ang-2 peptibody 2×Con4-C, or equivalent control peptibody started either at study day 3, 10 or 15. […] The results are set forth in FIG. 8 (body weights not shown).
Female nude mice were injected subcutaneously with 2×10^6 Colo-205 cells plus Matrigel (2:1) on study day 0. At study day 14, treatments were started with a) 350 μg/mouse, s.c. twice a week, of the Ang-2 peptibody 2×Con4-C, b) 20 mg/kg qwx3 i.p. of taxotere, or c) a combination of both.
Female nude mice were injected subcutaneously with 2×10^6 Colo-205 cells plus Matrigel (2:1) on study day 0. At study day 14 started treatments with a) 350 μg/mouse, s.c. twice a week, of the Ang-2 peptibody 2×Con4-C, b) 50 mg/kg qdx5 i.p. of 5-FU, or c) a combination of both.

## MGAQQEECEWDPWTCEHMLEGGGGG-Fc (MGAQQEECEWDPWTCEHMLEGGGGG-{Fc(5)}; not fully specified (bridges); printed as MGAQQEECEWDPWTCEHMLEGGGGG-Fc; cysteine pairing not given here) [Con4 (N)]
[1]
  hAng-1 IC 50: No In-
[2]
  hAng-1 EC 50: No
[3]
  hAng-2 ka: 330000 M⁻¹ s⁻¹
  hAng-2 kd: 0.00022 s⁻¹
[4]
  mAng-2 ka: 730000 M⁻¹ s⁻¹
  mAng-2 kd: 0.00044 s⁻¹

## M-Fc-GGGGGAQQEECEWDPWTCEHMLE (M[Fc]GGGGGAQQEECEWDPWTCEHMLE; cysteine pairing not given here) [Con4 (C)]
[5]
  ka: 530000 M⁻¹ s⁻¹
  kd: 0.0002 s⁻¹
[6]; 1.0 or 0.1 mg/rat/day s.c. for seven days
  overt toxicity based on body weights: no evidence of overt toxicity
[6]; s.c. 1.0 or 0.1 mg/rat/day for seven days after loading dose 3.0 or 0.3 mg, p<0.04
  VEGF-induced angiogenesis (number of vessels, blood vessel area): significantly inhibited VEGF-induced angiogenesis in a dose-dependent manner
[7]; s.c. once per day, 1000, 200, 40 and 8 ug/mouse/day, 20 doses
  tumor growth vs. vehicle control: inhibited tumor growth

B1: M-Fc-GGGGGAQQEECEWDPWTCEHMGSGSATGGSGSTASSGSGSATHQEECEWDPWTCEHMLE (protein)
chain: M[Fc]GGGGGAQQEECEWDPWTCEHMGSGSATGGSGSTASSGSGSATHQEECEWDPWTCEHMLE
[5]
  ka: 480000 M⁻¹ s⁻¹
  kd: 0.00016 s⁻¹
[8]; Example 15
  body weights: no significant effect on body weights
[8]; Example 15: s.c. 14, 2.8 and 0.56 μg/mouse twice a week, p=0.003 intermediate dose, p<0.0001 high dose
  tumor growth vs. vehicle control and control peptibody: Significant differences in tumor growth were observed between the two higher doses
[8]; Example 16
  body weight: no significant effect on body weight
[8]; Example 16: s.c. 350 μg/day from day 3, harvested Day 18, p=0.0154
  tumor growth vs. time-matched control group: Significant differences in tumor growth
[8]; Example 17
  body weights: no significant effect on body weights
[8]; Example 17: 350 μg/mouse s.c. twice a week started at study day 3, 10 or 15, p=0.089 day 15 group, p<0.0001 day 3 and 10 groups, listed as 2×Con4-C
  tumor growth vs. vehicle control: capable of inhibiting Colo205 tumor growth irrespective of when dosing begins; also recorded: Significant differences in tumor growth
[8]; Example 19a
  body weights: no significant effect on body weights
[8]; Example 19a, from study day 14: 2×Con4-C 350 μg/mouse s.c. twice a week, taxotere 20 mg/kg qwx3 i.p., or both, p<0.0001
  tumor growth vs. vehicle control: Significant differences in tumor growth
[8]; Example 19b, from study day 14: 2×Con4-C 350 μg/mouse s.c. twice a week, 5-FU 50 mg/kg qdx5 i.p., or both, p<0.0001
  tumor growth vs. vehicle control: Significant differences in tumor growth
[7]; 200 μg/mouse/day s.c. from day 3
  tumor growth vs. vehicle control and control peptibody: Significant differences in tumor growth
